Data from paper PMC3790753.

Biological target: stratifin (14-3-3 σ) (UniProt P31947)
Test: anti-myc IP, anti-stratifin blot
Conditions: reference: wild-type Pkp-3-myc; sites S285

“plakophilin-3 (from UniProt Q9Y446) Pkp-3-myc S285A” was tested, and the “binding against the reference” value was “lost”.
